Measured values taken from PMC3699067.

Molecular target: T1, DJ-1 (human (endogenous in HEK293T)), Q99497
T1 chain: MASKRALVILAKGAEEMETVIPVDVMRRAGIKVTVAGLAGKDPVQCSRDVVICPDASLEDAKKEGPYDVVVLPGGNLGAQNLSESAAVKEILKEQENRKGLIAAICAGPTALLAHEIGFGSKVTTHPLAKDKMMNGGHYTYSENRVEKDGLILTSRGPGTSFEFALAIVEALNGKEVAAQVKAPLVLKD
Test: cross-linking
Details: remark: other sources report otherwise

B1: DJ-1, Q99497 1-189 (natural protein)
chain: T1 chain
- stoichiometry N: 2
